Data reported in US20240368259A1 (ONENA MEDICINES S L, published 2024).
Values belong to the binder of their own block, whether it stands above or below them.

B1: SCBT anti-lefty antibody (Santa Cruz Biotechnology, catalog number sc-365845, mAb D6) (antibody, mouse IgG1, kappa)
heavy: QVQLQQSGAELVRPGASVKLSCKALGYTFADYEMHWVRQTPVHGLEWTGSIHPGSGGTAYDQRFKGKATLTADKSSSTAYMELSSLTSEDSAVYYCTFYDLDYWGQGTTLTVSSAKTTPPSVYPLAPGSAAQTNSMVTLGCLVKGYFPEPVTVTWNSGSLSSGVHTFPAVLQSDLYTLSSSVTVPSSTWPSETVTCNVAHPASSTKVDKKIVPRDCGCKPCICTVPEVSSVFIFPPKPKDVLTITLTPKVTCVVVDISKDDPEVQFSWFVDDVEVHTAQTQPREEQFNSTFRSVSELPIMHQDWLNGKEFKCRVNSAAFPAPIEKTISKTKGRPKAPQVYTIPPPKEQMAKDKVSLTCMITDFFPEDITVEWQWNGQPAENYKNTQPIMDTDGSYFVYSKLNVQKSNWEAGNTFTCSVLHEGLHNHHTEKSLSHSPGK
light: DILMTQAAPSISVTPGESVSISCRSSESLLHSNGNTYLYWFLQRPGQSPQLLIYRKSNLASGVPDRFSGSGSGTAFTLRISRVEAEDVGVYYCMQQLEYPLTFGGGTKLELKRADAAPTVSIFPPSSEQLTSGGASVVCFLNNFYPKDINVKWKIDGSERQNGVLNSWTDQDSKDSTYSMSSTLTLTKDEYERHNSYTCEATHKTSTSPIVKSFNRNEC
notes: The ELISA protocol prints the catalog number as sc-36584, the proliferation protocols as sc-365845; also called SCBT antibody; SCBT Ab

How the values were obtained:
[1] = target: T1, recombinant human LEFTY2 protein (R&D Systems, catalog number 746-LF-025) (human, UniProt O00292 78-366, limits assumed); test: ELISA, plate coated with 5 ug/ml protein, 5 ug/ml primary antibody, absorbance at 450 nm
T1 construct: also called Lefty R&D; rhLefty2 protein
T1 sequence (looked up): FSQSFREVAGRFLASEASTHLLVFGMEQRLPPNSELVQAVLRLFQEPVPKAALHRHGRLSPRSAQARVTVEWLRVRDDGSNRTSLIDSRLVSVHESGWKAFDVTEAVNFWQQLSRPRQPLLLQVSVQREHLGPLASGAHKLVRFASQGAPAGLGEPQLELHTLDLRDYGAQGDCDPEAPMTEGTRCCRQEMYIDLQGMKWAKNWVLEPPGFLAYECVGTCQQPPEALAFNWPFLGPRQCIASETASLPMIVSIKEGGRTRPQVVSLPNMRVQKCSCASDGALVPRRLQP

[2] = target: T2, 1189 IMM (human LEFTY1-Rabbit Fc fusion protein) (human); test: as above
T2 construct: also called Lefty IMM; Lefty Imm
T2 chain: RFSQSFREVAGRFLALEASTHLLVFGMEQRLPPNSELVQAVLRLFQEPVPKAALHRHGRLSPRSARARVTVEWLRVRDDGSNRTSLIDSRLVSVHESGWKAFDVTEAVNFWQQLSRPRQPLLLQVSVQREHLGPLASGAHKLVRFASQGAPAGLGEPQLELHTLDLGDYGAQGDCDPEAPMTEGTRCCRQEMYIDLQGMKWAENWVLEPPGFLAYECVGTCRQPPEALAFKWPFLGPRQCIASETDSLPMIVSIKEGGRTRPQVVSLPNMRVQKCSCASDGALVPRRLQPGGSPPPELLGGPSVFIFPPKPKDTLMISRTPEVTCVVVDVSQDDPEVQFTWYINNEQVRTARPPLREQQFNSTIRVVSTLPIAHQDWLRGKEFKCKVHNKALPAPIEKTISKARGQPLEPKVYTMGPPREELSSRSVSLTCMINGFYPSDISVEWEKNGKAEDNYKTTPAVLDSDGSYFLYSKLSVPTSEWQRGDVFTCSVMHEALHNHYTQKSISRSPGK

[3] = target: T3, 1189 SCR1 (human LEFTY1-human Fc fusion protein) (human); test: as above
T3 construct: also called Lefty SCR; Lefty Scr
T3 chain: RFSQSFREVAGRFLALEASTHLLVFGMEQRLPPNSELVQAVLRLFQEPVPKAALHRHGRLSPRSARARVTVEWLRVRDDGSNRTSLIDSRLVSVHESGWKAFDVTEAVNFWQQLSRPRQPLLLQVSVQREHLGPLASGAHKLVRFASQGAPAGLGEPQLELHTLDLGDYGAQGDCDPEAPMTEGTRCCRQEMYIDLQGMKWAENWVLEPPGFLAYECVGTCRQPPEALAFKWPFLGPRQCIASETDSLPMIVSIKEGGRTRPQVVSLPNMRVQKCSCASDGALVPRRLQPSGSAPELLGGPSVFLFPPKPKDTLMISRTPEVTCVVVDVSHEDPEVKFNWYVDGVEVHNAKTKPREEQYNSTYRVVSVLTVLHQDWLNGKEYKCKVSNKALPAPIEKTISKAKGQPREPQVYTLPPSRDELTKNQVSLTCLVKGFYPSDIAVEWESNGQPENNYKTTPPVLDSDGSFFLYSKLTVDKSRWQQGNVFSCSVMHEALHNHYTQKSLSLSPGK

[4] = target: T4, BMPR2 (BMP receptor, in mouse fibroblasts and mouse mammary cells) (mouse, UniProt O35607 27-1038); test: proximity ligation assay in fibroblasts
T4 construct: whole, on cells; For the co-IP it came from cell lysate; also called BMP Type II receptor
T4 sequence (looked up): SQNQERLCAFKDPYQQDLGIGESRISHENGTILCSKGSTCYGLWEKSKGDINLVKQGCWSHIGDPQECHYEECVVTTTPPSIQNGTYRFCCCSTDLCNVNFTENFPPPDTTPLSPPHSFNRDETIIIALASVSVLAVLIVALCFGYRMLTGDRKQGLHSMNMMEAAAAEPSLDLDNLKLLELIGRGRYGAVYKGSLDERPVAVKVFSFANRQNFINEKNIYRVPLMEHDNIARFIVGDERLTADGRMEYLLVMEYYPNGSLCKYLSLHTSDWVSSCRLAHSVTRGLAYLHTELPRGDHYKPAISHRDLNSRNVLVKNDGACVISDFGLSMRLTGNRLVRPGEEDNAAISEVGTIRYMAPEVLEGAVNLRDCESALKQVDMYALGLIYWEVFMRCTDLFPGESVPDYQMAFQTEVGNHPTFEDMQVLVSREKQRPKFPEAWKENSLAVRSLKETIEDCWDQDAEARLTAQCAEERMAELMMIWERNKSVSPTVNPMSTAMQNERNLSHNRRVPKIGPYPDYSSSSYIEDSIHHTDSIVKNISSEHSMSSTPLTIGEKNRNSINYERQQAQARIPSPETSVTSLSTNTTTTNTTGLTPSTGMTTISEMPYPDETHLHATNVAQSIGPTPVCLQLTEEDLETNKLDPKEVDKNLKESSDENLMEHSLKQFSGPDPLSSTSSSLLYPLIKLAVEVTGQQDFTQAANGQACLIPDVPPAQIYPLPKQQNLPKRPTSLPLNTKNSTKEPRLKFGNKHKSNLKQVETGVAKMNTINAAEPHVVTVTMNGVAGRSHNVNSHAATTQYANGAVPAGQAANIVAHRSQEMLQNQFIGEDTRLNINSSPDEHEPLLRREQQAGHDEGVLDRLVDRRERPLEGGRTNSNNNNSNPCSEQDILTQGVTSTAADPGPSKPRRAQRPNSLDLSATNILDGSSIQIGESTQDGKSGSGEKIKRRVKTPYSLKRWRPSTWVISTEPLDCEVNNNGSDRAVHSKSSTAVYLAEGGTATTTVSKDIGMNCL

[5] = target: T5, LRP6 (UniProt O88572 20-1613, limits assumed); test: proximity ligation assay in fibroblasts
T5 construct: whole, on cells
T5 sequence (O88572 20-1613 limits assumed): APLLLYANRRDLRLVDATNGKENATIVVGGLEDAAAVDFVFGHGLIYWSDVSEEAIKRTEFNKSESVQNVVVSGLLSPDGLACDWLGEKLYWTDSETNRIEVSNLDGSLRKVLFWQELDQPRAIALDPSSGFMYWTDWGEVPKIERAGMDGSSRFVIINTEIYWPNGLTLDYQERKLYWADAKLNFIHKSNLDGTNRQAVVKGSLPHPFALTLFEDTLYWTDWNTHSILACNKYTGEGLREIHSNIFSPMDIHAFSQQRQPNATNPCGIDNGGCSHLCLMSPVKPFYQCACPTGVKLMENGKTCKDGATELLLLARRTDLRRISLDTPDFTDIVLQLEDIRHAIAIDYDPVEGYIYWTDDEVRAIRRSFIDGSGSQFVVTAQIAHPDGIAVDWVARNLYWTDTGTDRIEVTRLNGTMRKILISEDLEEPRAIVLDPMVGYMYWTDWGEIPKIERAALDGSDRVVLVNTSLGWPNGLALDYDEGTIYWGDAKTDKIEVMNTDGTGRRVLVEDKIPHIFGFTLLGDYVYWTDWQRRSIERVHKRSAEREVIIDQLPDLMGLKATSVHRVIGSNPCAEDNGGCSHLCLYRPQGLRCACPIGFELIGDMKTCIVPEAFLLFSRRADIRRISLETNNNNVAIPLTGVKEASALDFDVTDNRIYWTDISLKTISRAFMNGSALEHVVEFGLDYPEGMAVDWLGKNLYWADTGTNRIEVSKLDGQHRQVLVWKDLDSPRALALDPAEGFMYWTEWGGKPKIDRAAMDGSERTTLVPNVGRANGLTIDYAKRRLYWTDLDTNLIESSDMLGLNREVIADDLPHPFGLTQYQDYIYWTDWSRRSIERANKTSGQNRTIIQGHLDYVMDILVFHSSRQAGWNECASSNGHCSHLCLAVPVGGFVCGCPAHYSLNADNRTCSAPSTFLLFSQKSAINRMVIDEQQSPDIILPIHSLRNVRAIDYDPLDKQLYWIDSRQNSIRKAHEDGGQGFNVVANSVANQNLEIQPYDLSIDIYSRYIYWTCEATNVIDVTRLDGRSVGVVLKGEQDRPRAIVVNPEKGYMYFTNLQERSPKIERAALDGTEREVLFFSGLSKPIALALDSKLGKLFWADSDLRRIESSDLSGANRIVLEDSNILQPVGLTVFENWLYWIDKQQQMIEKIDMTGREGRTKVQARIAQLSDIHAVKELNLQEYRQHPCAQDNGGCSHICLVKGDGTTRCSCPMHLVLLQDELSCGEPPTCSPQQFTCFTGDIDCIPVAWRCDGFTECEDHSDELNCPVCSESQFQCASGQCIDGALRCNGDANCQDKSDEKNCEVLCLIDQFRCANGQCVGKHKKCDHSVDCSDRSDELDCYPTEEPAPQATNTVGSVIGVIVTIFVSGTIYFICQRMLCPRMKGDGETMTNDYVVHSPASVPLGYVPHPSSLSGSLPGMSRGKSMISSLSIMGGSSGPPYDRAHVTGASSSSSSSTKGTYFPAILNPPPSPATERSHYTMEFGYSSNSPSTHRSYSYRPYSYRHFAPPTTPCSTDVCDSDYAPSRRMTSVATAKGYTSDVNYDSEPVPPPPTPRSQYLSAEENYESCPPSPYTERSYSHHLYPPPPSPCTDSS

[6] = target: T6, BMPR2 on human breast cancer cells (PDX tumor cells, MDA-MB-231) (human, UniProt Q13873 27-1038); test: proximity ligation assay on sorted PDX cells
T6 construct: whole, on cells
T6 sequence (looked up): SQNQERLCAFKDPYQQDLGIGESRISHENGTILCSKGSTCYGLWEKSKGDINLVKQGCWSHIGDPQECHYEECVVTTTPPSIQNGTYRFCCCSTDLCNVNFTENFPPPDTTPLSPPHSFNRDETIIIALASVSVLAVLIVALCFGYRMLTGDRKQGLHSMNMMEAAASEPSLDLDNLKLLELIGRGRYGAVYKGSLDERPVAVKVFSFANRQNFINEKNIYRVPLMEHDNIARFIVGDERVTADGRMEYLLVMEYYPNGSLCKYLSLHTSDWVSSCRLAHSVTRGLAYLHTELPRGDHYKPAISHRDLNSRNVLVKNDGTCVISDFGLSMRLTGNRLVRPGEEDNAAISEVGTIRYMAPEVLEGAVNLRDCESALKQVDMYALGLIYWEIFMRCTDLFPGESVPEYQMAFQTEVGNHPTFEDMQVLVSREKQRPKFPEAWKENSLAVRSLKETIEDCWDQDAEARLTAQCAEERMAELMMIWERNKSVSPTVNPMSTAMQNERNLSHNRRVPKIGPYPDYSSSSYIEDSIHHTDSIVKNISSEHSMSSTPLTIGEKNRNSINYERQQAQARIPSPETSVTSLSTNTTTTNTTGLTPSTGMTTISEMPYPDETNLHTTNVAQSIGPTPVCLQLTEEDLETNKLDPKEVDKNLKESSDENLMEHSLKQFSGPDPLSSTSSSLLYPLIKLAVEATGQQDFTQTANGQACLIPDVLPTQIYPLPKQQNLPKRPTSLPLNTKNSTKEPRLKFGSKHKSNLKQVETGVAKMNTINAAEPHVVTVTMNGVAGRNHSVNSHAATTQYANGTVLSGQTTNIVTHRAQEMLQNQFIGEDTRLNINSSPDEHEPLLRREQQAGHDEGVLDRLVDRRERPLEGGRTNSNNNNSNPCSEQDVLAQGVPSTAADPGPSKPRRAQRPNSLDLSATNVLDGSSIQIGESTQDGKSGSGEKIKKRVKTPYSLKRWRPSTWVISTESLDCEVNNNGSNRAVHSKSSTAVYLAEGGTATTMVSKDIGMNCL

[7] = target: B1; test: competition ELISA: the peptide is added to the antibody on coated LEFTY proteins

Binder: B1
binding result [1]: binds
binding result [2]: binds
binding result [3]: binds

binding result [4]: binds
binding result [5]: no binding
B2: LEFTY1 (recombinant mouse Lefty1 protein, R&D Systems, catalog number 994-LF) (ligand, UniProt Q64280 78-368, looked up)
chain: FSQNLREVAGRFLVSETSTHLLVFGMEQRLPPNSELVQAVLRLFQEPVPRTALRRQKRLSPHSARARVTIEWLRFRDDGSNRTALIDSRLVSIHESGWKAFDVTEAVNFWQQLSRPRQPLLLQVSVQREHLGPGTWSSHKLVRFAAQGTPDGKGQGEPQLELHTLDLKDYGAQGNCDPEAPVTEGTRCCRQEMYLDLQGMKWAENWILEPPGFLTYECVGSCLQLPESLTSRWPFLGPRQCVASEMTSLPMIVSVKEGGRTRPQVVSLPNMRVQTCSCASDGALIPRRLQP
notes: Added to cells at 200 ng/ml (co-IP, SMAD assays)

binding result [6]: binds
B3: BMP7 in human breast cancer PDX cells (ligand, UniProt P18075 293-431, looked up)
chain: STGSKQRSQNRSKTPKNQEALRMANVAENSSSDQRQACKKHELYVSFRDLGWQDWIIAPEGYAAYYCEGECAFPLNSYMNATNHAIVQTLVHFINPETVPKPCCAPTQLNAISVLYFDDSSNVILKKYRNMVVRACGCH

binding result [4]: binds
B4: BMP7 (R&D Systems 5666-BP) (ligand, mouse, UniProt P23359 292-430, looked up)
chain: STGGKQRSQNRSKTPKNQEALRMASVAENSSSDQRQACKKHELYVSFRDLGWQDWIIAPEGYAAYYCEGECAFPLNSYMNATNHAIVQTLVHFINPDTVPKPCCAPTQLNAISVLYFDDSSNVILKKYRNMVVRACGCH

binding result [7]: binds
Binder: PMIVSVKEGGRTRPQVVSLPNMRVQT [Lefty1 peptide PMIVSVKEGGRTRPQVVSLPNMRVQT]
